Test results: the nanobody polyreactivity screen of Harvey et al. (2022)

Experiment: yeast display, Sf9 membrane polyspecificity reagent, FACS + sequencing; frameworks hold sequencing errors
In short: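 Polyreactivity labels are assigned by the sorting gate from which each nanobody was recovered. The gates were low and high (top ~1%), set on anti-HA fluorescence for expression and streptavidin fluorescence for reagent binding. Before sorting, galactose-induced (36–48 hours) yeast display cells were stained for 1 hour at 4 °C with 10% biotinylated, detergent-solubilized Sf9 membrane reagent.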

Sequence	polyreactivity (PSR sort gate)
QVQLVESGGGLVQAGGSLRLSCAASGSTLSKNAMGWYRQAPGKERELVAAMTRRGGSTSYADSVKGRFTMSRDYAKNTVYLQMNSLKPEDTAVYYCNAVSKYDYGYWGQGTQVTVSS	high polyreactivity
QVQLVESGVGLVQAGGSLRLSCAASGGIFAVYAMGWYIQAPGKERELVAAITWRGGSTRYADSVKGRFTISRDNAKNTVYLQMNSLKPEDTAVYYCAVRSTGYPSRYYYWGQGTQVTVSS	high polyreactivity
QVQLVESGGRLVQAGGSLRLSCAASGRIFTYNAMGWYTQAPGKERELVAGITRRGGSTYYADSVKGRFTISRDNAKNTVYLQMNSLKPEDTAVYYCAATYPNARRYEYWGQGTQVTVSS	high polyreactivity
QVQLVESGGGLVQAGGSLRLSCAASGRIFYANAMGWYRQAPGKERELVAAISQSGGSTFYADSVKGRFTISRDNAKNTVYLQMNSLKPEDTAVYYCATEYYGPVYDLDYDYWGQGTQVTVSS	low polyreactivity
PLQLVESGGGLVQAGGSLRLSCAATGFIFAVNAMGWYRQAPGKERELVAAISSSGTTNYADSVKGRFTISRDNAKNTVYLQMNSLKPEDTAVYYCAADYHGSPEYDYWGQGTQVTVSS	low polyreactivity
QVQLVESGGGLVQAGGSIRLSCAASGRTFIYNVMGWYRQAPGKERELVAAISSGGNTNYADSVKGRFTISRDNAKNTVYLQMNSLKPEDPAVYYCNARWPLGVSRGGMGYWGQGTQVTVSS	high polyreactivity
QVQLVESGGGLVQAGGSLRLSCAASGRTFGYNAMGWYRQAPGKERELVAAITSGGGTKYADSVKGRFTISRDNAKNTVYLQMNSLKPEDTAVYYCAATYLYEWSRFVYDGLYYWGQGTQVTVSS	low polyreactivity
QVQLVESGGGLVQAGGSLRLSCAASGSTFENNVMGWYRQAPGKERELVATITWGDGSTSYADSVKGRFTISRDNAKNTVYLQMNSLKPEDTAVYYCAADDRIGYGKNKDHDYWGQGTQVTVSS	low polyreactivity
QVQLVESGVGLVQAGGRLRLSCAASGSIFYYYAMGWYRQAPGKERELVAAISGTGGSTYYADSVKGRFTISRDNAKITFYLQMNSLKPEDTAVYYCAASFYIERHRYIYWGQGTQVTVSS	high polyreactivity
QVQLVESGGGLVQAGGSLRLSCAASGRTFRAYAMGWYRQAPGKERELVAAITSGGSTYADSVKGRFTISRDNAKNTVYLQMNSLKPEDTAVYYCAADGYKLFYSKFRYVQYGYWGQGTQVTVSS	high polyreactivity
QVQLVESGGGLVQAGGSLRLSCAASGRIITRYTMGWYRQAPGKERELVASITSSGSSTYYADSVKGRFTISRDNAKNTFYLQMNSLKPEDTAVYYCAARSRLRYLYDYWGQGTQVTVSS	high polyreactivity
QVPLVESGGGVVQAGGSLRLSCAASGRTYRWNVMGWYRQAPGKERELVATISRRSGSTNYADSVKGRFTISRDNAKNTVYLQINSLKPEDTAVYYCNTDTYFPLYDYWGQGTQVTVSS	low polyreactivity
QVQLVESGGVLVQAGGSLRLSCAASGSTFLDYAMGWYRQAPGKERELVAAITSGGSTYYADSVKGRFTISRDNAKNTVDLHMKSMIPEDTAVYYCAADSVTGNAPSLVGDIYYYWGQGTQVTVSS	low polyreactivity
QVQLVESGGGLDQAGGSLRLSCAASGSTFYKYAMGWYRQAPGNERDLVAGISSSGGNTYYADSVKGRFTISRDNAKNTDYLQMNSLKPEDTAVYYCAARPRYLKEYDYWGQGTQVSVSS	high polyreactivity
QVQLVESGGGLVQAGGSLRLSCAASGGTLYTYAMGWYRQAPGKEWEFVAAITVSGGRTYYADSVKGRFPISRDNAKNTVYLQINSLKPEDTAVYYCAARYWSWRSFKVDYWGQGTQVTVSS	high polyreactivity
QVQLVESGGGLVQAGGSLRLSCAASGSTFIRYAMGWYRQAPGKERELVAAIRRTGASTYYADSVKGRFTISRDNAKNTVYLQMNSLKPEDTAVYYCAARYSIWSWNGLDYWGQGTQVTVSS	high polyreactivity

Sequence	polyreactivity (PSR sort gate)
QVQLVESGGGLVQAGGSLRLSCAASGFTFSAYTMGWYRQAPGKERELVAAINWSGANTYYADSVKGRFTISRDNAKNTVYLQMNSLKPEDTAVYYCNAEDDYTYDLSFGGYKYDYWGQGTQVTVSS	low polyreactivity
QVQLVESGGGLVQAVGSLRLSCAASGSIFPVYAMGWYRQAPGKERELVADITYTTGSTYYADSVKRRFTISRDNAKNTFYLQMNSLKPEDTAVYYCAKDFGFQSDSWGQGTQVTVSS	low polyreactivity
QVQLVESGGGLVQAGGSLRLSCAASGRIFTSYVMGWDRQAPGKERELVAAITRSGGSTYYADSVKGRFTISRDNAKNTVYLQMNSQKPEDTAVYYCAAGVRGGGGRYRYGYWGQGTQVTVSS	high polyreactivity
QVQLVESGGGLVQAGGSLRLSCAASGSTFYEYAMGWYRQAPGKERELVAAISSGGSTYYADSVKGRFTISRDNAKNTVYLQMNSLKPEDTAVYYCNADCQTYGGEYDYWGQGTQVTVSS	low polyreactivity
QVQLVESGGGLVQAGGSLRLSCAASGIIFSKYAMGWYRQAPGKERELVAAISWNGVSTYYADSVKGRFTISRDNAKNTVYLQMNSLKPEDTAVYYCAADTYRSRRISYYWGQGTQVTVSS	low polyreactivity
QVQLVESGGGLVQAGGSLRLSCADSGRTIYSNAMGWNIQAPGKERELVAAITGSSGSTYYADSVKGRFTISRDNAKNTVYLQMYSLKPEDTAVYYCAASCYGSLVRQLRLRGQGTQVTVSS	low polyreactivity
QVQLVESGGGLVQAGGSLRLSCAASGGIFDPYAMGWYRQAPGKERELVAAITNSGGSTYYADSVKGRFTISRDNAKNTVYLQMNSLKPEDTAVYYCAAEGLYVGYDYWGQGTQVTVSS	low polyreactivity
QVQLVESGGGLVQAGGSLRLSCPASGRIFVRNAMGWYRQAPGKERELVAAITTSGGRTYYADSVKGRFTISRDLAKNPVYLQMNSLKPEDTAVYYCAAETRYRNFPYYYWGQCTQVTVSS	high polyreactivity
QVQLVESVAGLVQAGGSLRLSCAASGSIFRFYAMGWYRQAPGKERELVAGITWSGASTYYADSVKGRFTISRDNAKNTVYLQMNSLKPEDTAVYYCAKRYRLDGFYYWGQGTQVTVSS	high polyreactivity
QVQLVESGGGLVQAGGSLRLSCAASGSTSYRYAMGWYRQAPGKERELVAGITRSGGSTYYADSVKGRFTISRDNAKNTVYLQMNSLKPEDTAVYYCAAYYSRQYVGYGYWGQGTQVTVSS	high polyreactivity
QVQLVESGGGLVQAGGSLRLSCAASGIIFYDYAMGWYRQAPGKERELVAAISKRGGSTYYADSVKGRFTISRDNAKNTVYLQMNSLKPEDTAVYYCAAKYYRYGDPDRYDYWGQGTQVTVSS	high polyreactivity
QVQLVESGGGLVQAGGSLRLICAASGRIFSLYAMGWYRQAPGKERELVAAITWSSGSTYYADSVKGRFTISRDNAKNTVYLQMNSLKPEDTAVYYCNAVWRTRDYDYWGQGTQVTVSS	low polyreactivity
QVKLVESGGGLVQAGGSLSLSCAASARIFSAYAMGWYRQAPGKEMELVAAISYSGGSTYYADSVKGRFTIARDNAKNTVYLQMNSLKPEDTADYYCAADTVYGYQWGQGTQVTVSS	low polyreactivity
QVQLVESGGGLVQAGGSLRLSCAASGRIFATYAMGWYRQAPGKERELVAAISDSGGRTYYADSVKGRFTISRDNAKNTVYLQMNSLKPADTALYYCAAKNGDRYARGYWGQATQVTVSS	high polyreactivity
QVQLVESGGGLVQAGGSLRLSCAASGSIFYWYAMGWYRQAPGKERELVAAISSGGSTNYADSVKGRFTISRDNAKNTVYLQMNSLKPEDTAVYYCNADIRSFYWEYYTGLDSWGQGTQVTVSS	low polyreactivity
QVQLVESGGGLVQAGGSLRLSCAASGFIISGYAMGWYRQAPGKERELVAAISWSGGRTYYADSVKGRFTISRDNAKNTVYLQMKSLKPEDTAVYYFAADGYYRDWYGYGYWGLGTQVTVSS	high polyreactivity
